Assay results: US9260483B2, “Triazacyclononane-based phosphinate ligand and its use for molecular imaging” (TECHNISCHE UNIVERSITÄT MÜNCHEN, priority 2011, dated 2016)
Read-outs that look alike come from different tables or passages of the source.

What was measured:
[1] = in vivo; parameters: species or system mice; settings: CD-1 athymic nude, mouse, total radioactivity
Description: Biodistribution of ^68Ga-R3PEG4P9
Biodistribution studies were performed using CD-1 athymic nude mice bearing human melanoma xenografts on both shoulders (right: M21 cell line with high αvβ3 integrin xexpression, left: M21L cell line with low αvβ3 integrin expression). The mice were injected 6-9 MBq of ^68Ga-R3PEG4P9 (specific activity: ca. 900 GBq/μmol, corresponding to approx. 7-10 pmol of the tracer). After the specified time points (60 and 120 min, respectively), the mice were sacrificed, the organs taken out and counted in a gamma counter. For blockade, the mice were administered 200 μg (approx. 10 mg/kg) of unlabeled R3PEG4P9 10 min before tracer injection.
Data is visualized in the chart (FIG. 3).

[2] = system: CD-1 athymic nude mice bearing human melanoma xenografts; settings: mouse
[3] = biological target: T1, αvβ3 integrin (Homo sapiens, UniProt P05106+P06756); experiment: In vitro binding assay: displacement of 125I-echistatin on M21 human melanoma cells; settings: log IC50
T1 construct: endogenous in cells; host or cells: M21 human melanoma cells
T1 sequence (P06756 31-889 limits assumed): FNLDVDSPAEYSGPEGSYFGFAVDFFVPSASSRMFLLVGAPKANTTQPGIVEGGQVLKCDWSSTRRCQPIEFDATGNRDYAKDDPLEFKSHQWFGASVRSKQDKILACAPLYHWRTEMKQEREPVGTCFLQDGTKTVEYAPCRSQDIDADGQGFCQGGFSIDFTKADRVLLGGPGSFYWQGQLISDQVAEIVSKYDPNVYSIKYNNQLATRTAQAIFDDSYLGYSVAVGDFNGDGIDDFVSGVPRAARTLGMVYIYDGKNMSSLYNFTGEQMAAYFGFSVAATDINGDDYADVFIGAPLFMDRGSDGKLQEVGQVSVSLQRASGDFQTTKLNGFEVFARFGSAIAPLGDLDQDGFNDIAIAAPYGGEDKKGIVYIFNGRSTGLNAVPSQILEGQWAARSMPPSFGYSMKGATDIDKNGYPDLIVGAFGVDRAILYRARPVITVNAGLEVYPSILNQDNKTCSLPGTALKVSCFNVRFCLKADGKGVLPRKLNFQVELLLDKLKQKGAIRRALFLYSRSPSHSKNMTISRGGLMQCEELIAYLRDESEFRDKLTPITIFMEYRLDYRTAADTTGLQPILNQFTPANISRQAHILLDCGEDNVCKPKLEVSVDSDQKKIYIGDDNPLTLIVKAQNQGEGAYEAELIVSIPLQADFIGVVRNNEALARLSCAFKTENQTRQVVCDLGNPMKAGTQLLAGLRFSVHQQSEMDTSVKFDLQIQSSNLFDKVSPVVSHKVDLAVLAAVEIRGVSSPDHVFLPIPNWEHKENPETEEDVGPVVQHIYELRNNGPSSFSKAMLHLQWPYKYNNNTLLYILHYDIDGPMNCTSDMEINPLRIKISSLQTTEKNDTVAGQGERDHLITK
T1 sequence (P06756 891-1048 partner limits assumed): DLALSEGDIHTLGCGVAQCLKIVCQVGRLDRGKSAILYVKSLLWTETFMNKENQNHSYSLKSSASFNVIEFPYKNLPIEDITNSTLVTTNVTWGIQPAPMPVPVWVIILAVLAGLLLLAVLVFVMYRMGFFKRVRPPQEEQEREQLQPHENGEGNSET
T1 sequence (P05106 27-788): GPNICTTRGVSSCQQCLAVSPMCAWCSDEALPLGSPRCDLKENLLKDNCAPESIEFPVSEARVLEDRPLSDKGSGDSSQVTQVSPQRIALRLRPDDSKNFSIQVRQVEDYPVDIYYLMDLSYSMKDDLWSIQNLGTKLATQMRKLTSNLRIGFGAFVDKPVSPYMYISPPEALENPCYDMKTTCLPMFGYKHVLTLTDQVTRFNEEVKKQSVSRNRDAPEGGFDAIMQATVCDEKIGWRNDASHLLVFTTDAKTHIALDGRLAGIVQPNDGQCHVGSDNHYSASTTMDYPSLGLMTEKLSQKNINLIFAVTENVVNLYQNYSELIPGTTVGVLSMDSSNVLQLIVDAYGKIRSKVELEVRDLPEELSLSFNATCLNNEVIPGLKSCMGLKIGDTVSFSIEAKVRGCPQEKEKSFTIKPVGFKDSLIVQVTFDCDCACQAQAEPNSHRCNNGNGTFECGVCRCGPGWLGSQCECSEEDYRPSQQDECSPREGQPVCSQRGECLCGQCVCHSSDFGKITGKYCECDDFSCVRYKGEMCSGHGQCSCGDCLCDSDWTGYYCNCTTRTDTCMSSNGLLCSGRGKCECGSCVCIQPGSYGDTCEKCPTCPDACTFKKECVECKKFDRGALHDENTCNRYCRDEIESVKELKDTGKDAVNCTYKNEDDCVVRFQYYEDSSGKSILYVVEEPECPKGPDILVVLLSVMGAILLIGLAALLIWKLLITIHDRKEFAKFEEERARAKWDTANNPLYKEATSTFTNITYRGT

[4] = Log P determination: octanol-water partition coefficient (1-octanol/PBS) of the labelled compound
Description: Octanol-water partition coefficients were determined by addition of ca. 50 kBq of the respective labelled compound to Eppendorf cup containing each 500 μl of 1-octanol and isotonic phosphate buffered saline (PBS). After 2 min of vigorous stirring, the phases were separated by centrifugation, 100 μl aliquots of each phase taken out and the activity contained determined with a gamma counter. Each experiment was repeated 5-8 times.

Compound: N=C(N)NCCC[C@@H]1NC(=O)[C@H](CCCCNC(=O)CCOCCOCCOCCOCCNC(=O)CCP(=O)(O)CN2CCN(CP(=O)(O)CCC(=O)NCCOCCOCCOCCOCCC(=O)NCCCC[C@@H]3NC(=O)[C@@H](Cc4ccccc4)NC(=O)[C@H](CC(=O)O)NC(=O)CNC(=O)[C@H](CCCNC(=N)N)NC3=O)CCN(CP(=O)(O)CCC(=O)NCCOCCOCCOCCOCCC(=O)NCCCC[C@@H]3NC(=O)[C@@H](Cc4ccccc4)NC(=O)[C@H](CC(=O)O)NC(=O)CNC(=O)[C@H](CCCNC(=N)N)NC3=O)CC2)NC(=O)[C@@H](Cc2ccccc2)NC(=O)[C@H](CC(=O)O)NC(=O)CNC1=O (single isomer, unassigned) [68Ga-R3PEG4P9, metal not drawn]
- tissue uptake at 1 h ([1]; adrenal gland, 60 min, blocked, read-out: uptake % ID/g, adrenal gland): 0.36 %ID/g
- tissue uptake at 1 h ([1]; adrenal gland, 60 min, read-out: uptake % ID/g, adrenal gland): 27.8 %ID/g
- tissue uptake at 2 h ([1]; adrenal gland, 120 min, read-out: uptake % ID/g, adrenal gland): 24.2 %ID/g
- tissue uptake at 1 h ([1]; blood, 60 min, blocked (200 μg unlabeled R3PEG4P9 10 min before), read-out: uptake % ID/g, blood): 0.09 %ID/g
- tissue uptake at 1 h ([1]; blood, 60 min after tracer injection, read-out: uptake % ID/g, blood): 0.31 %ID/g
- tissue uptake at 2 h ([1]; blood, 120 min after tracer injection, read-out: uptake % ID/g, blood): 0.16 %ID/g
- tissue uptake at 1 h ([1]; heart, 60 min, blocked, read-out: uptake % ID/g, heart): 0.08 %ID/g
- tissue uptake at 1 h ([1]; heart, 60 min, read-out: uptake % ID/g, heart): 1.29 %ID/g
- tissue uptake at 2 h ([1]; heart, 120 min, read-out: uptake % ID/g, heart): 1.47 %ID/g
- tissue uptake at 1 h ([1]; kidneys, 60 min, blocked, read-out: uptake % ID/g, kidneys): 1.97 %ID/g
- tissue uptake at 1 h ([1]; kidneys, 60 min, read-out: uptake % ID/g, kidneys): 10.2 %ID/g
- tissue uptake at 2 h ([1]; kidneys, 120 min, read-out: uptake % ID/g, kidneys): 8.63 %ID/g
- tissue uptake at 1 h ([1]; large int., 60 min, blocked, read-out: uptake % ID/g, large int.): 0.11 %ID/g
- tissue uptake at 1 h ([1]; large int., 60 min, read-out: uptake % ID/g, large int.): 2.44 %ID/g
- tissue uptake at 2 h ([1]; large int., 120 min, read-out: uptake % ID/g, large int.): 2.27 %ID/g
- tissue uptake at 1 h ([1]; liver, 60 min, blocked, read-out: uptake % ID/g, liver): 0.32 %ID/g
- tissue uptake at 1 h ([1]; liver, 60 min, read-out: uptake % ID/g, liver): 5.18 %ID/g
- tissue uptake at 2 h ([1]; liver, 120 min, read-out: uptake % ID/g, liver): 3.97 %ID/g
- tissue uptake at 1 h ([1]; lung, 60 min, blocked, read-out: uptake % ID/g, lung): 0.54 %ID/g
- tissue uptake at 1 h ([1]; lung, 60 min, read-out: uptake % ID/g, lung): 2.96 %ID/g
- tissue uptake at 2 h ([1]; lung, 120 min, read-out: uptake % ID/g, lung): 2.15 %ID/g
- tissue uptake at 1 h ([1]; muscle, 60 min, blocked, read-out: uptake % ID/g, muscle): 0.05 %ID/g
- tissue uptake at 1 h ([1]; muscle, 60 min, read-out: uptake % ID/g, muscle): 0.95 %ID/g
- tissue uptake at 2 h ([1]; muscle, 120 min, read-out: uptake % ID/g, muscle): 0.67 %ID/g
- tissue uptake at 1 h ([1]; pancreas, 60 min, blocked, read-out: uptake % ID/g, pancreas): 0.07 %ID/g
- tissue uptake at 1 h ([1]; pancreas, 60 min, read-out: uptake % ID/g, pancreas): 0.88 %ID/g
- tissue uptake at 2 h ([1]; pancreas, 120 min, read-out: uptake % ID/g, pancreas): 0.81 %ID/g
- tissue uptake at 1 h ([1]; small int., 60 min, blocked, read-out: uptake % ID/g, small int.): 0.24 %ID/g
- tissue uptake at 1 h ([1]; small int., 60 min, read-out: uptake % ID/g, small int.): 4.92 %ID/g
- tissue uptake at 2 h ([1]; small int., 120 min, read-out: uptake % ID/g, small int.): 3.75 %ID/g
- tissue uptake at 1 h ([1]; spleen, 60 min, blocked, read-out: uptake % ID/g, spleen): 0.24 %ID/g
- tissue uptake at 1 h ([1]; spleen, 60 min, read-out: uptake % ID/g, spleen): 3.38 %ID/g
- tissue uptake at 2 h ([1]; spleen, 120 min, read-out: uptake % ID/g, spleen): 3.5 %ID/g
- tissue uptake at 1 h ([1]; stomach, 60 min, blocked, read-out: uptake % ID/g, stomach): 0.17 %ID/g
- tissue uptake at 1 h ([1]; stomach, 60 min, read-out: uptake % ID/g, stomach): 4.43 %ID/g
- tissue uptake at 2 h ([1]; stomach, 120 min, read-out: uptake % ID/g, stomach): 3.56 %ID/g
- tissue uptake at 1 h ([1]; thyroid, 60 min, blocked, read-out: uptake % ID/g, thyroid): 0.17 %ID/g
- tissue uptake at 1 h ([1]; thyroid, 60 min, read-out: uptake % ID/g, thyroid): 3.27 %ID/g
- tissue uptake at 2 h ([1]; thyroid, 120 min, read-out: uptake % ID/g, thyroid): 2.89 %ID/g
- tissue uptake at 1 h ([1]; tumor M21 (high αvβ3), 60 min, blocked, read-out: uptake % ID/g, tumor M21): 0.62 %ID/g
- tissue uptake at 1 h ([1]; tumor M21 (high αvβ3), 60 min, read-out: uptake % ID/g, tumor M21): 6.08 %ID/g
- tissue uptake at 2 h ([1]; tumor M21 (high αvβ3), 120 min, read-out: uptake % ID/g, tumor M21): 4.63 %ID/g
- tissue uptake at 1 h ([1]; tumor M21L (low αvβ3), 60 min, blocked, read-out: uptake % ID/g, tumor M21L): 0.31 %ID/g
- tissue uptake at 1 h ([1]; tumor M21L (low αvβ3), 60 min, read-out: uptake % ID/g, tumor M21L): 1.48 %ID/g
- tissue uptake at 2 h ([1]; tumor M21L (low αvβ3), 120 min, read-out: uptake % ID/g, tumor M21L): 1.7 %ID/g
- fraction of the blood activity in the plasma after centrifugation ([2]; in vivo): 96%
- metabolites in tissue extracts, plasma and urine (radio-HPLC) ([2]; in vivo): no metabolites could be detected

Compound: N=C(N)NCCC[C@@H]1NC(=O)[C@H](CCCCNC(=O)CCOCCOCCOCCOCCNC(=O)CCP(=O)(O)CN2CCN(CP(=O)(O)CCC(=O)NCCOCCOCCOCCOCCC(=O)NCCCC[C@@H]3NC(=O)[C@H](Cc4ccccc4)NC(=O)[C@H](CC(=O)O)NC(=O)CNC(=O)[C@H](CCCNC(=N)N)NC3=O)CCN(CP(=O)(O)CCC(=O)NCCOCCOCCOCCOCCC(=O)NCCCC[C@@H]3NC(=O)[C@@H](Cc4ccccc4)NC(=O)[C@@H](CC(=O)O)NC(=O)CNC(=O)[C@@H](CCCNC(=N)N)NC3=O)CC2)NC(=O)[C@H](Cc2ccccc2)NC(=O)[C@H](CC(=O)O)NC(=O)CNC1=O [Compound R3PEG4P9]
- IC50 [3]: 42.7 nM
- stability in vivo (analysis of metabolites) [2]: fully stable in vivo

Compound: N=C(N)NCCC[C@@H]1NC(=O)[C@H](CCCCNC(=O)CCOCCOCCOCCOCCOCCOCCOCCOCCNC(=O)CCP(=O)(O)CN2CCN(CP(=O)(O)CCC(=O)NCCOCCOCCOCCOCCOCCOCCOCCOCCC(=O)NCCCC[C@@H]3NC(=O)[C@@H](Cc4ccccc4)NC(=O)[C@H](CC(=O)O)NC(=O)CNC(=O)[C@H](CCCNC(=N)N)NC3=O)CCN(CP(=O)(O)CCC(=O)NCCOCCOCCOCCOCCOCCOCCOCCOCCC(=O)NCCCC[C@@H]3NC(=O)[C@@H](Cc4ccccc4)NC(=O)[C@H](CC(=O)O)NC(=O)CNC(=O)[C@H](CCCNC(=N)N)NC3=O)CC2)NC(=O)[C@@H](Cc2ccccc2)NC(=O)[C@H](CC(=O)O)NC(=O)CNC1=O [Ga-R3PEG8P9]
- logP [4]: -4.13 ± 0.16
